Data from publication doi:10.1101/2022.01.16.476540 (bioRxiv, 2022).

B3: Sec9 (a.a. 416-651) (domain or fragment)
chain: ARQQQEEDEAVDEIKQEIKFTKQSSVASTRNTLKMAQDAERAGMNTLGMLGHQSEQLNNVEGNLDLMKVQNKVADEKVAELKKLNRSILAVHVSNPFNSKRRRREREEQLKNRKIEEKLMREQTSQQLSQSTQRIEGAMNANNNISEVRERYQRKNVLEKAKRYQFENDEEDDEMELEIDRNLDQIQQVSNRLKKMALTTGKELDSQQKRLNNIEESTDDLDINLHMNTNRLAGIR

Columns and labels:
[1] = target: T1, Full length Sso1 WT (a.a. 1-290) (yeast (S. cerevisiae), UniProt P32867 1-290); experiment: single-molecule pull-down
T1 sequence: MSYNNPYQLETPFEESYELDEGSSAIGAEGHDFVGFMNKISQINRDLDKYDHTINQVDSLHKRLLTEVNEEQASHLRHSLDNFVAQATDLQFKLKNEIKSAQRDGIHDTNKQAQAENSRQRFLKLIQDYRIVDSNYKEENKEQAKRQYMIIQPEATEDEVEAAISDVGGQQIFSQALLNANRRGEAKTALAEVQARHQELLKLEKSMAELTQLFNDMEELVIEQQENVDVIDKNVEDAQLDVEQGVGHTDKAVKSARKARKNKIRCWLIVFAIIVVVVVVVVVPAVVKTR

[2] = target: B3; experiment: single-vesicle docking
[3] = target: T1, Full length Sso1 WT (a.a. 1-290); experiment: single-vesicle docking
[4] = target: T2, binary Q-SNARE complex (Habc-truncated Sso1: Sec9) on vesicle membranes (yeast (S. cerevisiae), UniProt P32867;P40357); experiment: single-vesicle docking
T2 sequence 1: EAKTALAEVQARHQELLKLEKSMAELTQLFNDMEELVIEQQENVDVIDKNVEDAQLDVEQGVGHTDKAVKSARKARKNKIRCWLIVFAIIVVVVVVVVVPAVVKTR
T2 sequence 2: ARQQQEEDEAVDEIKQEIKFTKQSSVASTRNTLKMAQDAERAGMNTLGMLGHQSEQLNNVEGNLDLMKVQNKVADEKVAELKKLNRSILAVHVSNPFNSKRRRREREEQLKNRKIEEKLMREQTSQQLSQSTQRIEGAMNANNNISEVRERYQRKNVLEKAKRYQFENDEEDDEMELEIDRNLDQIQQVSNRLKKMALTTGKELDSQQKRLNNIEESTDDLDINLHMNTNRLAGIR

[5] = target: T3, binary Q-SNARE complex (full-length Sso1: Sec9) on vesicle membranes (yeast (S. cerevisiae), UniProt P32867;P40357); experiment: single-vesicle docking
T3 sequence 1: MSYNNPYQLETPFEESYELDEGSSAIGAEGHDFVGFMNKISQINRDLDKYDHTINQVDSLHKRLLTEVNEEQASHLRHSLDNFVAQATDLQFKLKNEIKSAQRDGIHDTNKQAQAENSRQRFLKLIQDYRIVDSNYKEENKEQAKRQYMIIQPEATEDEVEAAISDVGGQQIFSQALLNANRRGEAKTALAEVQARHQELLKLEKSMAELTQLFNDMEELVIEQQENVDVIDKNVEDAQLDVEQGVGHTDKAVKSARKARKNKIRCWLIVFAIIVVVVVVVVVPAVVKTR
T3 sequence 2: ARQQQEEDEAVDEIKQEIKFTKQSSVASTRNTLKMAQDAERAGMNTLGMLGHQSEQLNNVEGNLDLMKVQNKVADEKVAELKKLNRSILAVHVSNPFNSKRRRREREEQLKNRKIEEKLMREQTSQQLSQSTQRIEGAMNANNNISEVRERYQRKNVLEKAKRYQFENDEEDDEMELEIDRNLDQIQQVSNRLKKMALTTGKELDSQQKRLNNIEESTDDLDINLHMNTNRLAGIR

B1: Cy3-labeled Sec9 (A442C) (domain or fragment)
chain: ARQQQEEDEAVDEIKQEIKFTKQSSVCSTRNTLKMAQDAERAGMNTLGMLGHQSEQLNNVEGNLDLMKVQNKVADEKVAELKKLNRSILAVHVSNPFNSKRRRREREEQLKNRKIEEKLMREQTSQQLSQSTQRIEGAMNANNNISEVRERYQRKNVLEKAKRYQFENDEEDDEMELEIDRNLDQIQQVSNRLKKMALTTGKELDSQQKRLNNIEESTDDLDINLHMNTNRLAGIR
binding result [1]: binds

B2: Habc domain-truncated Sso1 (a.a. 185-290) (domain or fragment)
chain: EAKTALAEVQARHQELLKLEKSMAELTQLFNDMEELVIEQQENVDVIDKNVEDAQLDVEQGVGHTDKAVKSARKARKNKIRCWLIVFAIIVVVVVVVVVPAVVKTR
binding result [2]: binds

B3
binding result [3]: binds

B4: Snc2 WT (1-115) (natural protein)
chain: MSSSVPYDPYVPPEESNSGANPNSQNKTAALRQEIDDTVGIMRDNINKVAERGERLTSIEDKADNLAISAQGFKRGANRVRKQMWWKDLKMRMCLFLVVIILLVVIIVPIVVHFS
binding result [4]: binds
binding result [5]: binds
